The DeepSol protein solubility set

Assay: soluble on expression in E. coli; label from the status in PepcDB or PDB records

| Sequence | soluble on expression in E. coli |
| --- | --- |
| MKRYTVKDIEALLPKLGADDPRWEMLRQDERKSVQALLARFERQKARRHAIEQRWEELMRYERELYAAGVRRIAGIDEAGRGPLAGPVVAAAVILPKDAYLPGLDDSKRLTPEKREALFAQIEACAVAIGIGIVSAAEIDERNIYEATRQAMAKAVNALSPPPEHLLVDAMAVPCPLPQQRLIKGDANSASIAAASVIAKVTRDRWMKELDRRYPQYGFARHMGYGTPEHFEAIRRYGVTPEHRRSFAPVREVLKASEQL | soluble |
| MKVRASVKRICDKCKVIRRHGRVYVICENPKHKQRQG | soluble |
| MDWGTELWDQFEVLERHTQWGLDLLDRYVKFVKERTEVEQAYAKQLRSLVKKYLPKRPAKDDPESKFSQQQSFVQILQEVNDFAGQRELVAENLSVRVCLELTKYSQEMKQERKMHFQEGRRAQQQLENGFKQLENSKRKFERDCREAEKAAQTAERLDQDINATKADVEKAKQQAHLRSHMAEESKNEYAAQLQRFNRDQAHFYFSQMPQIFDKLQDMDERRATRLGAGYGLLSEAELEVVPIIAKCLEGMKVAANAVDPKNDSHVLIELHKSGFARPGDVEFEDFSQPMNRAPSDSSLGTPSDGRPELRGPGRSRTKRWPFGKKNKTVVTEDFSHLPPEQQRKRLQQQLEERSRELQKEVGQREALKKMKDVYEKTPQMGDSASLEPQIAETLSNIERLKLEVQKYEAWLAEAESRVLSNRGDSLSRHARPPDPPASAPPDSSSNSASQDTKESSEEPPSEESQDTPIYTEFDEDFEEEPTSPIGHCVAIYHFEGSSEGTISMAEGEDLSLMEEDKGDGWTRVRRKEGGEGYVPTSYLRVTLN | soluble |
| MSKFAMVFPGQGSQSLGMLADLAAQFPIVEATFSEASSVLGYDLWQLVQQGPAEELNKTWQTQPALLTASVAIWRIWQHQGGKLPSLMAGHSLGEYSALVCAGVLDFKQAVSLVELRGKLMQEAVPEGTGAMYAIIGLDNESIAKACEESAQGQVVSPVNFNSPGQVVIAGNKDAVERAGAACKAAGAKRALPLPVSVPSHCALMKPAADKLAVALEKIDFQEPLFPVVNNVDVKAEVSPVAIRSALVRQLYNPVRWTESVEFIAAEGVELLLEIGPGKVLTGLTKRIVDSLAAAAVNDVVTLNSALEH | not soluble |
| GQGVYTYEDGGVLQGTYVDGELNGPAQEYDTDGRLIFKGQYKDNIRHGVCWIYYPDGGSLVGEVNEDGEMTGEKIAYVYPDERTALYGKFIDGEMIEGKLATLMSTEEGRPHFELMPGNSVYHFDKSTSSCISTNALLPDPYESERVYVAESLISSAGEGLFSKVAVGPNTVMSFYNGVRITHQEVDSRDWALNGNTLSLDEETVIDVPEPYNHVSKYCASLGHKANHSFTPNCIYDMFVHPRFGPIKCIRTLRAVEADEELTVAYGYDHSPPGKSGPEAPEWYQVELKAFQATQQK | soluble |
| MGSDKIHHHHHHMKNRIIEKIENALQTLKNGGLIIITDDENRESEGDMVGLAEYVTPKAVNTMVTNARGLLCVPMSAEIAQKLGLSPMVTNAEDAFGTAFTISTDAKTTKTGISAFDRAKTIQKLADPQAKFSEFYHPGHVFPLIAEEGGVLARGGHTEAAVDLAKLAGVRPVAYITEVLKKDGTMARRNTLKSLAEGMQMPLLTIEEIKIYRYMKDAGIVKSVAKVHLPTKYGEFEMEAFDTGAGQEPTLLLTKGSLSEVQPLLLRIHSECLTGDIFGSKRCDCGEQLERSLKEIQSRGRGALLYLRQEGRGIGLANKLKAYELQEQGMDTVEANLKLGFQADERHYGVAAAILRKKGITKVNLLTNNPDKIKQLETLGIKVEERVTIQIPARPENRSYLKVKKEKMHHLLKGMD | not soluble |
| MGSDKIHHHHHHMPVDSKHPLWLANQPRWERCRTALQGRDAVHAAGEKYLPKLAGQDKAEYDAYKGRAMFYGATARTEEALIGMVFRKEPTVTLPAALQPMIEDADLAGTPVDTFIENVTKEVIDVTRVGVLVDYPVASGEFMTVGQAQAAGMRPYLATYKAEAIINWRTARVRGVNQLVLVVLAECYTDPKDEFTAEEKTQYRVLDLVDGFYRVRIYRTDLNTPAFEYTPMMNGKRLPYIPFVLIGRNGEAIDPQKPVLLDLVDVNMSHYRGTADYEHALHFTALPTAVVIGHELKEGQALKIGSSEAWVFTDPQADAKYLEFSGQGLDSIKVSLERKEGMMATLGARILAPEKRDAEAAETAKIHRAGENSVLGGIALGVGRSLAKAFRWAAEWAGAGSGTVEVKLNTEFFPAGLTAQDLTALVGALQAAAISPQTFYDNMRRGSIIDDGVTFEEEQDRIEAAGPALGTLGGQDVKPANGAV | not soluble |
| MGHHHHHHHHMTTSILDTYPQICSPNALPGTPGNLTKEQEEALLQFRSILLEKNYKERLDDSTLLRFLRARKFDINASVEMFVETERWREEYGANTIIEDYENNKEAEDKERIKLAKMYPQYYHHVDKDGRPLYFEELGGINLKKMYKITTEKQMLRNLVKEYELFATYRVPACSRRAGYLIETSCTVLDLKGISLSNAYHVLSYIKDVADISQNYYPERMGKFYIIHSPFGFSTMFKMVKPFLDPVTVSKIFILGSSYKKELLKQIPIENLPVKYGGTSVLHNPNDKFYYSDIGPWRDPRYIGPEGEIPNIFGKFTVTS | soluble |
| MAHHHHHHMPRPEILASCHQTLENCLIESTRNSMDATNKAMLESVAAEMMSVSDGVMRLPLFLAMILPVQLGAATADACTFIPVTRDQSDIYEVFNVAGSSFGSYAAGDVLDMQSVGVYSQLRRRYVLVASSDGTSKTATFKMEDFEGQNVPIRKGRTNIYVNRIKSVVDNGSGSLLHSFTNAAGEQITVTCSLNYNIGQIALSFSKAPDKGTEIAIETEINIEAAPELIPLINHEMKKYTLFPSQFVIAAEHTVQAAYEAQREFGLDLGSLQFRTLKEYLSHEQDMLRLRIMIWRTLATDTFDIALPVNQSFDVWATIIRGKFQTVYRDIIERVKSSGAMGMFAGADAASFFKQLPKDFFQPAEDYIQTPYVHYIGTPFRTTHST | not soluble |
| MSVNNIDQLLGELKSAAALASGKQAPAAQQTPQVDFSDVLKSTIEQVNSAQQTSEEMQKQFQLGDNKEVNLQDVMMSLQKASLSFQTMVQARNKLVSAYQEIMNTQV | not soluble |
| MAESLLIKDIAIVTENEVIKNGYVGINDGKISTVSTERPKEPYSKEIQAPADSVLLPGMIDIHIHGGYGADTMDASFSTLDIMSSRLPEEGTTSFLATTITQEHGNISQALVNAREWKAAEESSLLGAELLGIHLEGPFVSPKRAGAQPKEWIRPSDVELFKKWQQEAGGLIKIVTLAPEEDQHFELIRHLKDESIIASMGHTDADSALLSDAAKAGASHMTHLYNAMSPFHHREPGVIGTALAHDGFVTELIADGIHSHPLAAKLAFLAKGSSKLILITDSMRAKGLKDGVYEFGGQSVTVRGRTALLSDGTLAGSILKMNEGARHMREFTNCSWTDIANITSENAAKQLGIFDRKGSVTVGKDADLVIVSSDCEVILTICRGNIAFISKEADQI | soluble |
| MMEERANLMHMMKLSIKVLLQSALSLGRSLDADHAPLQQFFVVMEHCLKHGLKVKKSFIGQNKSFFGPLELVEKLCPEASDIATSVRNLPELKTAVGRGRAWLYLALMQKKLADYLKVLIDNKHLLSEFYEPEALMMEEEGMVIVGLLVGLNVLDANLCLKGEDLDSQVGVIDFSLYLKDVQDLDGGKEHERITDVLDQKNYVEELNRHLSCTVGDLQTKIDGLEKTNSKLQEELSAATDRICSLQEEQQQLREQNELIRERSEKSVEITKQDTKVELETYKQTRQGLDEMYSDVWKQLKEEKKVRLELEKELELQIGMKTEMEIAMKLLEKDTHEKQDTLVALRQQLEEVKAINLQMFHKAQNAESSLQQKNEAITSFEGKTNQVMSSMKQMEERLQHSERARQGAEERSHKLQQELGGRIGALQLQLSQLHEQCSSLEKELKSEKEQRQALQRELQHEKDTSSLLRMELQQVEGLKKELRELQDEKAELQKICEEQEQALQEMGLHLSQSKLKMEDIKEVNQALKGHAWLKDDEATHCRQCEKEFSISRRKHHCRNCGHIFCNTCSSNELALPSYPKPVRVCDSCHTLLLQRCSSTAS | soluble |
| MASTVLNVPIAQPENGSSDKIPKWSARAIKSLAMGELEARKLKYPSTGTEAILMGILVEGTSTVAKFLRGNGVTLFKVRDETLSLLGKSDMYFFSPEHPPLTEPAQKAIAWAIDEKNKSDVDGELTTAYLLLGVWSQKDSAGRQILEKLGFNEDKAKEVEKSMNEDVDLSFKKQGQLEHHHHHH | soluble |
